The text below walks through data of patent US20180346569A1 (LYVGEN BIOPHARMA, published 2018).

The target in experiment [1] is T1, Cyno PD-1-Fc tag (Sino Biological Inc. Cat#90311-CO2H) (cynomolgus monkey, UniProt B0LAJ3 25-170).
T1 construct: Bought Fc fusion; also called PD-1 of cynomolgus monkey; Cynomolgus monkey PD-1
The experiment can be described thus: ELISA, Cyno PD-1-Fc coated at 2 ug/ml, antibody titrated, detected with anti-human Ig kappa-HRP. As for the experimental part: To determine binding to PD-1 of cynomolgus monkey, Cyno PD-1—Fc tag (Sino Biological Inc. Cat#90311-CO2H) was diluted in PBS to 2 ug/ml, and 100 ul/well was used to coat an ELISA plate (Costar, Cat#3590, high binding), 4° C. overnight. The plate was decanted and blocking solution (eBioscience, ELISA/ELISPOT Diluent, Cat#00-4202-55) was added, 200 ul/well. After 1 hour incubation at room temperature, the plate was washed with PBST three times. The testing PD-1 antibody was diluted in blocking buffer to 0, 0.001, 0.01, 0.1, 1.10 ug/ml and added to the plate, 100 ul/well. The plate was incubated 1 hour at room temperature and then washed four times with PBST. Anti-Hu IgG-HRP (goat-anti-human Ig kappa-HRP, Millipore, Cat# AP502P) at 1:4000 dilution was added to the plate, 100 ul/well. The plate was incubated 1 hour at room temperature followed by washing with PBST four times. The TMB substrate solution was added 100 ul/well. The color developed for 15 minutes and 50 ul/well of 1M H2SO4 was added to terminate the reaction. Absorbance at 450 nm was determined in FlexStation 3 ELISA reader.

For experiment [2], the target named is T2, Human PD-1-His tag protein (Sino Biological Inc. Cat#10377-H08H-100) (human, UniProt Q15116 25-167).
T2 construct: Bought protein; not shown: His tag
The experiment can be described thus: ELISA, antibody coated at 1 ug/ml, PD-1-His titrated, detected with anti-His-HRP; antibody coated on the plate, human PD-1-His titrated. As for the experimental part: (§1) The PD-1 antibody sample was diluted in PBS to 1 ug/ml and was coated in an ELISA plate (Costar, Cat#3590, high binding) 100 ul/well, 4° C. overnight. The plate was decanted and blocking solution (eBioscience, ELISA/ELISPOT Diluent, Cat#00-4202-55) was added 200 ul/well. After 1 hour incubation at room temperature, the plate was washed with PBST three times. […] The plate was incubated 1 hour at room temperature and then washed four times with PBST. Anti-His-HRP (Genscript Cat#A00612) at 1:2000 dilution was added to the plate 100 ul/well. The plate was incubated 1 hour at room temperature followed by washing with PBST four times. The TMB substrate solution was added 100 ul/well. Let the color develop for 15 minutes and add 50 ul/well 1M H2SO4 to terminate the reaction. Absorbance at 450 nm was determined in FlexStation 3 ELISA reader.

Experiment [3] has as its target T3, Human PD-1 (captured on an anti-His IgG Biacore chip) (human, UniProt Q15116 25-167).
T3 construct: It may be the same Sino Biological PD-1-His protein as m3; also called PD-1 antigen; not shown: His tag implied by capture on anti-His IgG
As to the kind of experiment: SPR (Biacore), human PD-1 captured on anti-His IgG chip, SSI-361 injected at 3.125-50 nM, 1:1 model. As for the experimental part: Flow cells of a Series S CMS sensor chip (GE Healthcare Life Sciences) were activated with freshly mixed 50 mmol/L NHS and 200 mmol/L EDC for 360 seconds (10 μL/min). Then, anti-His IgGs, in 10 mmol/L NaAC (pH 5.0) was injected onto the activated flow cell (10 μL/min) for 300 seconds (10 μL/min) with HBS-EP+(10 mM HEPES, 150 mM NaCl, 3 mM EDTA and 0.05% P20, pH 7.4) as the running buffer. The remaining active coupling sites were blocked with a 420 second injection of 1 mol/L ethanolamine (10 μL/min). This procedure was repeated for 2 times to immobilized protein on 2 flow cells individually. Low flow rate overnight was maintained for the equilibrium of the immobilized proteins. Human PD-1 was captured on a flow cell 2 (10 μL/min). […] Flow cell 1 without captured antigen was used as reference flow cell. To remove the tested antibody and antigen from the surface, 10 mM glycine-HCl pH 1.5 was injected for 60s (10 μL/min, flow cell 1-2). The above procedures were repeated for each concentration of serially diluted tested antibody. The KD value (Table 1) was evaluated using Biacore X100 evaluation software 2.0 with 1:1 interaction binding model. Flow cell 1 was used as reference flow cell for data subtraction.

Experiment [4] addresses T4, rhesus monkey PD-1-His (Sino Biological Inc. Cat#90305-KO8H-100) (rhesus monkey, UniProt B0LAJ2 25-170).
T4 construct: Bought protein; also called Rehsus monkey PD-1
As to the kind of experiment: ELISA, antibody coated at 1 ug/ml, PD-1-His titrated, detected with anti-His-HRP. On the procedure: as §1

Experiment [5] deals with T4, rhesus monkey PD-1-His (Sino Biological …). As to the kind of experiment: ELISA, antibody coated at 1 ug/ml, rhesus monkey PD-1-His titrated (the concentration axis is that of PD-1-His), detected with anti-His-HRP. On the procedure: as §1
Experiment [6] deals with T2, Human PD-1-His tag protein (Sino …). As to the kind of experiment: ELISA, antibody coated at 1 ug/ml, human PD-1-His titrated (the concentration axis is that of PD-1-His), detected with anti-His-HRP. As for the experimental part: as §1

T3 sequence (Q15116 25-167): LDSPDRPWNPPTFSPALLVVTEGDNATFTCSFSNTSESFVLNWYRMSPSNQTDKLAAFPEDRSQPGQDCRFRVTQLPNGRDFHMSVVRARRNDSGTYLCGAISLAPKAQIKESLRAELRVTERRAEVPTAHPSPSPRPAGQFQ
T4 sequence (B0LAJ2 entry or part of it limits assumed): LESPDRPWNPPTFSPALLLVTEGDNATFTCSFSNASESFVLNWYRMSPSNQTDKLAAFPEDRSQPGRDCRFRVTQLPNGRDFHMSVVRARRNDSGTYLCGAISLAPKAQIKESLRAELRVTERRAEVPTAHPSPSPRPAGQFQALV
T2 sequence (Q15116 25-167 limits assumed): as the sequence (Q15116 25-167) above
T1 sequence (B0LAJ3 entry or part of it limits assumed): as the sequence (B0LAJ2 entry or part of it limits assumed) above, with P10A, R67Q, Q75R counted along it

B1: SSI-361 (humanized SHB-617 in human IgG4 S228P/kappa) (antibody, V domains shown)
VH: QVTLKESGPALVKPTQTLTLTCTFSGFSLSTSGTCVSWIRQPPGKALEWLATICWEDSKGYNPSLKSRLTISKDTSKNQAVLTMTNMDPVDTATYYCARREDSGYFWFPYWGQGTLVTVSS
VL: NIQMTQSPSSLSASVGDRVTITCKAGQNVNNYLAWYQQKPGKAPKVLIFNANSLQTGVPSRFSGSGSGTDFTLTISSLQPEDFATYYCQQYNSWTTFGGGTKVEIKR
notes: Full human IgG4 (hinge S228P, EU numbering)/kappa, expressed in HEK293 or CHO cells; also called PD-1 Ab01
Take B1: the figures for the EC50 in experiment [1], in experiment [2] and in experiment [4] were 80 pM, 330 pM and 390 pM, respectively. For the same molecule, the concentration giving a half-maximal response (EC50 (read off the curve)) is about 0.01 µg/mL in experiment [1], about 0.05 µg/mL in experiment [5] and about 0.03 µg/mL in experiment [6]. The Kd in experiment [3] was 5070 pM. In experiment [3], this molecule returned an off-rate constant (koff) of 0.00117 s⁻¹. Moreover, in experiment [3], the kon was 230000 M⁻¹ s⁻¹.
